Assay results as given in US20100297703A1.

Legend:
Test in all cases: cell-based or functional assay
[1] = molecular target: His-tag-fused C-terminal active domain of CwlE (His-CwlECTD) (Bacillus subtilis) (UniProt O07532)
[2] = molecular target: h-ACwlS protein (Bacillus subtilis) (UniProt O31852)
[3] = molecular target: 6His-C-CwlO protein (Bacillus subtilis) (UniProt P40767)
[4] = molecular target: 6His-C-YddH protein (Bacillus subtilis) (UniProt P96645)
Sequence of 6His-C-YddH protein (Bacillus subtilis) (P96645 206-329): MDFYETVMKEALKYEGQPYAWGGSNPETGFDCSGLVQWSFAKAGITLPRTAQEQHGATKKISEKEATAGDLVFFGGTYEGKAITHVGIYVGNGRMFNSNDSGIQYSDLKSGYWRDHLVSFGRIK

Sequence of His-tag-fused C-terminal active domain of CwlE (His-CwlECTD) (Bacillus subtilis) (O07532 371-488 limits assumed): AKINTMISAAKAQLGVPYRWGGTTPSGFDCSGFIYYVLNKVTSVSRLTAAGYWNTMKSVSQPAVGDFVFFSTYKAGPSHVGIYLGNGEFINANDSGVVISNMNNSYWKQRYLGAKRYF
Sequence of 6His-C-CwlO protein (Bacillus subtilis) (P40767 343-473): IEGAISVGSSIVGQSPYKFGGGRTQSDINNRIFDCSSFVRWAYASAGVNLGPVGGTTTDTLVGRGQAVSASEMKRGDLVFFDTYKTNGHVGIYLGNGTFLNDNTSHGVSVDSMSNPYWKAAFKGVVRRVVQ

His-YoeB (from UniProt O34841 24-181)
100: cell wall lysing activity (decrease in turbidity, OD540), His-CwlECTD:His-YoeB 1:2 by mole (% of activity inhibited) [1] | cell wall lysing activity (decrease in turbidity, OD540), enzyme:His-YoeB 1:2 by mole (% of activity inhibited) [2] | cell wall lysing activity (decrease in turbidity, OD540), enzyme:His-YoeB 1:2 by mole (% of activity inhibited) [3] | cell wall lysing activity (decrease in turbidity, OD540), enzyme:His-YoeB 1:2 by mole (% of activity inhibited) [4]
